Assay results from a protein production outcome set (Wang et al. 2014).

Assay: label from the status in PepcDB records

Sequence | protein production
MDLSLSTRTVGDRTVVEVGGEIDVYTAPKLREQLVELVNDGNFHLVVDMEGVDFLDSTGLGVLVGGLKRVRAHEGSLRLVCNQERILKIFRITGLTKVFPIHTSVEEAVAATD | failed
MTITNSKAEAWELIGNQFWTIGRVAARPSDRENDIFLENIVPGSTVAVIGASTRFLIEKALERGASVTVFDFSQRMCDDLAEALADRCVTIDLLDITAEIPKELAGHFDFVLNDRLINRFTTEEARRACLGMLSLVGSGTVRASVKLGFYDIDLKLIEYGEQSGTLAKFFDPSDKTFHFREAGDVLDRALVPHGLIDKPTLLEWYRRRGKETRFDDEDVRAL | failed
MRRREGHGTDSEMGQGPVRESQSSDPPALQFRISEYKPLNMAGVEQPPSPELRQEGVTEYEDGGAPAGDGEAGPQQAEDHPQNPPEDPNQDPPEDDSTCQCQACGPHQAAGPDLGSSNDGCPQLFQERSVIVENSSGSTSASELLKPMKKRKRREYQSPSEEESEPEAMEKQEEGKDPEGQPTASTPESEEWSSSQPATGEKKECWSWESYLEEQKAITAPVSLFQDSQAVTHNKNGFKLGMKLEGIDPQHPSMYFILTVAEVCGYRLRLHFDGYSECHDFWVNANSPDIHPAGWFEKTGHKLQPPKGYKEEEFSWSQYLRSTRAQAAPKHLFVSQSHSPPPLGFQVGMKLEAVDRMNPSLVCVASVTDVVDSRFLVHFDNWDDTYDYWCDPSSPYIHPVGWCQKQGKPLTPPQDYPDPDNFCWEKYLEETGASAVPTWAFKVRPPHSFLVNMKLEAVDRRNPALIRVASVEDVEDHRIKIHFDGWSHGYDFWIDADHPDIHPAGWCSKTGHPLQPPLGPREPSSASPGGCPPLSYRSLPHTRTSKYSFHHRKCPTPGCDGSGHVTGKFTAHHCLSGCPLAERNQSRLKAELSDSEASARKKNLSGFSPRKKPRHHGRIGRPPKYRKIPQEDFQTLTPDVVHQSLFMSALSAHPDRSLSVCWEQHCKLLPGVAGISASTVAKWTIDEVFGFVQTLTGCEDQARLFKDEARIVRVTHVSGKTLVWTVAQLGDLVCSDHLQEGKGILETGVHSLLCSLPTHLLAKLSFASDSQY | failed
MQSYAADLIALGLLFLTGLAADQLGARSRLPRVTLLLICGLLAGSAGFDLIPESLAALYPIISVIALSMVAFLLGGELSLRTLSGHGRAIVVISVMVVLVTQLTVSAGLAMIGMPLAAALMVGALATATDPAATLDVIRQGRASGDFPRRLKGIVAIDDAWGVLLFGLVAVLAGAVEGNGSAHGLLGGALVEIAGSVALGLAVGLPGASLTGRLSGGEPLRIEALGLVFLTAGLSLWLDLSYLIAGMTAGAVIVNLAHHHKRAFREIEHIEWPFMIVFFILAGASLDLSALWAVGPLLMGYVALRVLGRVLGGWAGAALAATARGERPWYGPALLPQAGVAIGMALIAGDLFPQYADMITALAIGATVVFELAGPLAAAYALRRVRDSRDQSAA | failed
MSAPLVYHHTPPALLPLYGKALLPKSGKNHPEAVQIPRLEASLLGVTTDIPALRDYMKVCNFQPGTRLPVTWPHILAFPLHLKLLTEPAFPLPLLGLVHLRNSITQHRPLAAGENLDLKVILDNQKRTDRGLEFDLVTEARASGRLIWEEVSTNLFRITNGPGKTSPKPKPELETYPFSEAIKAPENLGRQYAKVSGDRNPIHMHALSARAFGFPRAIAHGMWSKARALALLENQKGWKDGPVRASCQFKKPLLLPGNAMLNWQTGKDGWDFQLLNAKGDAPHLTGRIDWL | failed
HRMDAVEVTLFEKETRVAAHQTGHNSGVVHAGLYYLPGSLKARLCRRGVTLLQQYAENKGVAYEECGKVVVAHDSSEVARMDAIFDRAVANGVPGIRKVAGEEIPEIEPHARGVAAVHSPHTAIIDYVAVAEALAADITAAGGRVLLGREVVGLDSRTAETVVTTGQGSEVFDLVVTCAGLQSDRVALMSGEPRSPRVVPFFGDYFLLEPERSSLVKGLIYPVPDPRYPFLGVHLTKRIDGRIMLGPNAFLSF | failed
MRHWLILFLLALPCLAGAVSFNEQVERLPLGQSIDVFEDVRGSADINDITSRAIDSSFRRHDKDVLNAGYSRSVFWLRLDLDYRPVASSDPRTWLLELAYPPLDKLDLYLPDGQGGYRLAQRTGDTLPFASRPIRQNNYLFELGLEPNKPQRVYLRLESQGSIQAPLTLWSPKAYLEEQPERIYVLGIIYGVLLVMLIYNLFIFLSVRDTSYLYYILYIASFGLYQVSVNGAGIEYFWPDSPWWANAATPFLIGSAALFGCQFARSFLHTRDHSVWVDRGLLALMAVGALVMLMALTMSYAVALRLATYLALAFTGLIFAAGILAWLRGMRVARYFIIAWTAFLLGGIVNTLMVLGYLPNMFLTMYASQIGSALEVGLLSLALADRINAMKEERARILQESSRKLEALNQELANSNRLKDEFLATVTHELRTPMSGVIGSLELMQTVPMDVELAEYQRTAAGSARDMMRMVNDILALIELQAGKLYPRREPFSLRGLFDSLRAQYAPRVEEKGLRFALQLDDSLPDTLEGDAGKLAQALGYLVDNAIKFTARGSVTLRVAAGRTHDGVALRVEVIDTGIGFDMAAGSDLYQRFVQADSSLTRGYGGLGIGLALCRKLVELLGGELTHESRPGQGSRFLLRLQLTQPAQGLAPPPRRAGGQAVRRPEECTVLVVEDNAINQLVTRGMLLKLGYRVRTADNGSEALELLARERPDGVLLDCQMPVMDGFATCRAIRALPGCAELPVLALTAHSHSGDRERCLAAGMSDYMAKPVKFEELQTLLHDWLLCQPIVTKSA | failed
MLTQGNFDVLPVGDGAKRAQTVQPTVKLRIETIGVPRISDENGRNLTPVGSRNRVIPVILALSPRMTVGRRWLEALLWSDRGPDQASGSLRQALSSIRRQLGDARDILCANRTDIWMTSKDVTIDLLDDQQGVLQRLRAGRDFLEGIDILSEGFEDWLRQERASLLQMAEVELPARALPARLHATEAERPLSWTQEPPRFFLDQDLGLESDKLERFLTDAISTQLTQTVKSHFRADVRALDGTLTPVIVTPGARFAIRVTRINKAFAVLARMTEEPAGRLFWSRQLFIDSRETESMMDTAAALATEASEAMGARSFVASPAQQANVLAAEALADVFSFDPDRLRKAIRTLGRANDIDPHAPRPALKALALAFLALETRNTDRDHLIGEVTDLIRQSRALDSRNALALSFLADVQDLVFEDPQTALSYAKSALRSNPGIGYAYASLGALELRRGAAEAALIAASRAQRQLANSSLEVFSLMRLCVANLTAKDFDAAEQAAQRAAELAPTSQPPLRHLYALRLRRKDYAAARQTLRALRRLDPLFSMQYLRENPEFPAATIRTMQLHKLMDVELG | failed
MGNFLRRSCAVHPASGDGGRGRHVDEPPQQRPSSVRIKVRMRRDQLEELLYLARRGDQSDDGGKIGFLILKECMEGRLPASVLGSGGDVRSQRRGSYMVYRRLGSITEE | failed
MAYVTLYPNLILEALGKVRYPGTGKDLVSAGMVEDDIRIDGNKVSFSLIFDKANDPFIKSVVKAAESAILTYISEDVNIKGNISVKSKQAIPAPPAKLLPGVKNIIAVFSGKGGVGKSTVTANLAVSLAKSGYRVGLLDADIFGPSMPKMFHCEESRPVLEEVDGRELIVPEEVMGVKILSIGFFVDPDNAVLWRGSMAGNALTQLIRDANWGELDYFLIDMPPGTSDIHLTLVQTLAITGAVVVTTPQDVALADARKGISMFVGEKINVPVLGLVENMSWFTPAELPQNKYYIFGRDGGKNLAEELNIPLLGQIPLVQGICQSGDEGIPVAVRDDSMMGIAFRELAARVVEQVDYRNEHLDPTKVVEVAHR | failed
MALDRIEAMRAFCRIVELGSFTRAADSLGVASTTLSGQIQVLERLLDIRLLHRSTRKVHPTNEGLAYYQRARKVIEDIDDLEASVSISRAVVKGRVAVEMPTPVGIHLVIPALHGFTERYPHIHLDIGCSERVVGLMQEGIDCAIRGGDIADQDLIARRVGQMRFCLCAAPAYLDAHPAITHPAQLARHRHLGFRFPGTGKRFVATLRKQRDSHPLDHPPHVYFNNGTAVTAGAAAGLGIAALPRAEVRHLLEAGALREILPDWTLTSMPMSVVYPQTHQLSARVQVFVQWVAELFEGDGLWKDA | failed
MSRYDITGSEGEYEPGSDNKVLRNLPGITDPEEMNIVETDLLEDLYLQVFDNFPEELTFETLCQWHRAWLGNVYSWAGQSRTVDMSKPNIRFASPVQIPKLAEKFEARYLPRFAELPEMTDEELVAFLAEVHVEFILIHPFREGNGRISRLLLDVMAAKAGAEPLDYSLWDEHKDFYFKAIQAGRDGDYQHVERLIRDVLEAQQ | failed
MDKNIIIGAMTALITPFKNGKVDEQSYARLIKRQIENGIDAVVPVGTTGESATLTHEEHRTCIEIAVETCKGTKVKVLAGAGSNATHEAVGLAKFAKEHGADGILSVAPYYNKPTQQGLYEHYKAIAQSVDIPVLLYNVPGRTGCEISTDTIIKLFRDCENIYGVKEASGNIDKCVDLLAHEPRMMLISGEDAINYPILSNGGKGVISVTSNLLPDMISALTHFALDENYKEAKKINDELYNINKILFCESNPIPIKTAMYLAGLIESLEFRLPLCSPSKENFAKIEEVMKKYKIKGF | not failed
MTLYTNDYLEFYLTLVGWLINNGIWDMISDTGLFALPFLIIVVREWIKVRQEGADEGNKGVLSLARIETQLYIGYVVVSLCAIPVMSVGFDTLQFDQTRAKQCQVLLPAPGDTGWNTTFSSLTGKSARIPIWWAVMHSLSKGLNSGAVAAIPCGTDLRQMRMDVDAIRIDNPLLAQEVADFTHDCFGPSRARLFMRQPDLGAITKDPKTLQDLNWIGSRFLLNTSGYYDTDYSKTPRTAWPYDAKRDDGLPQVTGGGGYPTCKQWWSDGSIGLRDRLQAQVDPTLMNKLLGWAKWLSKDEVTDSMIRQVVSPSSQVNGDVYSDYGGQIGGTMWNGLARAGGTLGVGVGSLAYFPGMDIVRQALPMVMAFLKMAMVICLPLVLIIGAYQLKVAMTMSVVFFALIFVDFWFQLARWVDSTIIDVLYGSGSPHLSFDPVMGLNTTTQDAILNFVMGAMFIILPLFWMSALAWAGVQVSGVLEGLSRGTQSVERAGASGGGIAQQAVGSIGGKS | failed
MAACPELVDATFAILASGWHSTAVEVGGRWVFKFPRGAEAEAALLREAAVLRLVRPAVSLPVPAPQVFAGPPLFSRHEKLPGGYLLGEDYRRLDEPARQAVGDALGRFYAELHRLPPARMRAVGALPVRPWESPAAMRRRALPLLPAAWRERAERLVREYAKLPADPLGSIFGFFDGHGWNMAFDSEAGRLNGVYDFADAGIGPLHQEFIYSAFIDADLTERIVAAYERFSGRRLERRRIALLTAAHRLSELAELADEPRHLPDMLAGALDGLALAEAQGLA | failed
MGNQDTIIETDNGNSDYETPQPTSFPLEHNHFGVMEDGYIKIYEYNESRNEVKLKKEYADDELELEHHHHHH | not failed
SKYKILVSFSNPESGKTLLKLANGLTKKLNSNASLTALHLSPTNELHHYNIEEYEKEIFDPIIEESQQLNQKVTTIFKASNDINYEVADTANKGDYDLLLVG | failed
MSLPHLSSGEVASVLPLGKQLTQTPSAALFKEHRLEVMRMVLPAGKQVGSHSVAGPSTIQCLEGEVEIGVDGAQRRLHQGDLLYLGAGAAHDVNAITNTSLLVTVVLVDRGGS | not failed
MMELIVAQAAASAAELPFLLLQAAAVVGMVSMLMLLQRHIAFDDVRYKIYYGVVFGATGFLLTLLVSEFIQLPSKPYIRSDLLFLAGVVGSWQGGLISLALISAGRFLFGGPALFGAAFLDMSVISAFGIAIYGWMRRRRLTELGMREIAGVFAIRIFAALFAICLTYGLGMVGQDVFLSNVGRRIVGATVGLPMIACLFLLLRSEARAREAVKKREVAARTDSLTGLPNRRALKDHIEMTTRQAPAVPHALLLIEIVNIADVAAYQGDDWADLFWPKLAREICDGENGLLSKFNDPRSFMFGDATLAVVIEGVSLEKSESAGLVLHLHEGLIAFFRSAEAGPVPHLKIGAANLEMVSHQNVASFLRHLSLALRRSENPVQIFPFSFAEKAARDEGVRQMLVRWIKNGKPPIFYQPKFEIHNRRMIGAEALLRAIDTHGQALSPYYVLEIAERHRLLVEFEWSTIEAVVRDLAELPGLDPDFHLAVNISASSFATACFADRVVALLQEMTVPAHRLSIEVTEMSRMPTTDSVQQNFDTLIAAGVRLALDDFGTGYAALTLLARFPFEEVKIDQWMTSRLDQARFRDAVVLAFESAERYGAKLVTEGIETEEQCRILMQMGIRFGQGYLYSPAVPLDRLLPRRAYA | failed
